The results in this text go back to article PMC3155546 (PLoS ONE, 2011).

The test addresses T1, GST-TPPP1–219 (human, UniProt O94811 1-219).
T1 construct: also called GST-TPPP(FL); full-length TPPP
In words: co-IP. Conditions: both partners purified.

T1 sequence (O94811 whole entry): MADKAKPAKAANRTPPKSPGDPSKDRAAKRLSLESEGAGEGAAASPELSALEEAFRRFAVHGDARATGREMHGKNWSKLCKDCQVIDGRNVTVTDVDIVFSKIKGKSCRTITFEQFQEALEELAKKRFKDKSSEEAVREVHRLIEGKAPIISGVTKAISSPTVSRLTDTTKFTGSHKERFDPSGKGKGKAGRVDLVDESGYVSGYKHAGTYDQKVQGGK

B1: GST-PrP106–126 (domain or fragment)
chain: KTNMKHMAGAAAAGAVVGGLG
For the molecule B1, the binding result was “binds”.
